According to patent US20070059799A1:
Read-outs that look alike come from different tables or passages of the source.

What was measured:
HLA-B*5401 (human) = assay: competition with 125I-labelled probe peptide for purified HLA, gel filtration; details: remark: other sources report otherwise
HLA-B*0702 (human) = assay: as above; details: remark: other sources report otherwise
HLA-A*0201 (Human) [1] = assay: competition with 125I-labelled standard peptide for purified HLA, gel filtration
HLA-A*0201 (Human) [2] = assay: competition with 125I-labelled standard peptide on purified HLA, gel filtration
HLA-A*3301 (human) [3] = assay: inhibition of 125I-labelled standard peptide binding to purified HLA
HLA-A*3101 (human) [4] = assay: as above
HLA-A*1101 (human) [5] = assay: as above
HLA-A*3301 (human) [6] = assay: competition with 125I-labelled standard peptide on purified HLA, gel filtration
HLA-A*3101 (human) [7] = assay: as above
HLA-A*1101 (human) [8] = assay: as above
HLA-A*0301 (human) = assay: as above
HLA-A*6801 (human) = assay: as above; details: remark: other sources report otherwise
[9] = remark: other sources report otherwise

B1: Peptide 26.0568 (HBV pol 354, …) (peptide)
peptide: TPARVTGGVFL
modifications: not checked
- IC50 (HLA-B*5401 (human)): 20 µM
- IC50 (HLA-B*0702 (human)): 0.058 µM

B2: HBV POL 627 peptide … (peptide)
peptide: GLLGFAAPFT
modifications: not checked
- binding affinity ratio (IC50 of standard peptide / IC50 of test peptide) (HLA-A*0201 (Human) [1]): 0.0049

B3: HBV ENV 348 peptide GLSPTVWL (peptide)
peptide: GLSPTVWL
modifications: not checked
- binding affinity ratio (IC50 of standard peptide / IC50 of test peptide) (HLA-A*0201 (Human) [1]): 0.0036

B4: HBV ENV 348 peptide … (peptide)
peptide: GLSPTVWLSVI
modifications: not checked
- binding affinity ratio (IC50 of standard peptide / IC50 of test peptide) (HLA-A*0201 (Human) [1]): 0.0036

B5: HBV NUC 123 peptide … (peptide)
peptide: GVWIRTPPA
modifications: not checked
- binding affinity ratio (IC50 of standard peptide / IC50 of test peptide) (HLA-A*0201 (Human) [1]): 0.003

B6: HBV POL 751 peptide … (peptide)
peptide: WLLGCAANWI
modifications: not checked
- binding affinity ratio (IC50 of standard peptide / IC50 of test peptide) (HLA-A*0201 (Human) [2]): 0.0053

B7: HBV POL 414 peptide … (peptide)
peptide: WLSLDVSAA
modifications: not checked
- binding affinity ratio (IC50 of standard peptide / IC50 of test peptide) (HLA-A*0201 (Human) [2]): 0.0059

B8: HBV ENV 237 peptide … (peptide)
peptide: WMCLRRFIIFL
modifications: not checked
- binding affinity ratio (IC50 of standard peptide / IC50 of test peptide) (HLA-A*0201 (Human) [2]): 0.0019

B9: HBV POL 20 peptide PLEEELPR (peptide)
peptide: PLEEELPR
modifications: not checked
- binding affinity ratio (IC50 of standard peptide / IC50 of test peptide) (HLA-A*3301 (human) [3]): -0.0009
- binding affinity ratio (IC50 of standard peptide / IC50 of test peptide) (HLA-A*3101 (human) [4]): -0.0009
- binding affinity ratio (IC50 of standard peptide / IC50 of test peptide) (HLA-A*1101 (human) [5]): -0.0002

B10: HBV POL 2 peptide … (peptide)
peptide: PLSYQHFRK
modifications: not checked
- binding affinity ratio (IC50 of standard peptide / IC50 of test peptide) (HLA-A*3101 (human) [4]): 0.0006
- binding affinity ratio (IC50 of standard peptide / IC50 of test peptide) (HLA-A*1101 (human) [5]): 0.0031

B11: HBV POL 98 peptide PLTVNEKR (peptide)
peptide: PLTVNEKR
modifications: not checked
- binding affinity ratio (IC50 of standard peptide / IC50 of test peptide) (HLA-A*3301 (human) [3]): -0.0009
- binding affinity ratio (IC50 of standard peptide / IC50 of test peptide) (HLA-A*3101 (human) [4]): -0.0009
- binding affinity ratio (IC50 of standard peptide / IC50 of test peptide) (HLA-A*1101 (human) [5]): -0.0002

B12: HBV X 20 peptide … (peptide)
peptide: PVGAESRGR
modifications: not checked
- binding affinity ratio (IC50 of standard peptide / IC50 of test peptide) (HLA-A*3301 (human) [3]): 0.0043
- binding affinity ratio (IC50 of standard peptide / IC50 of test peptide) (HLA-A*1101 (human) [5]): 0.0005

B13: HBV NUC 188 8-mer peptide ATPSPRRR (SEQ ID NO: 648) (peptide)
peptide: RTPSPRRR
modifications: not checked
- binding affinity ratio (IC50 of standard peptide / IC50 of test peptide) (HLA-A*3301 (human) [6]): 0.0014
- binding affinity ratio (IC50 of standard peptide / IC50 of test peptide) (HLA-A*3101 (human) [7]): 0.0033
- binding affinity ratio (IC50 of standard peptide / IC50 of test peptide) (HLA-A*1101 (human) [8]): -0.0002
- binding affinity ratio (IC50 of standard peptide / IC50 of test peptide) (HLA-A*0301 (human)): -0.0002

B14: HBV X 65 8-mer peptide SAGPCALR (SEQ ID NO: 651) (peptide)
peptide: SAGPCALR
modifications: not checked
- binding affinity ratio (IC50 of standard peptide / IC50 of test peptide) (HLA-A*6801 (human)): 0.036
- binding affinity ratio (IC50 of standard peptide / IC50 of test peptide) (HLA-A*3101 (human) [7]; [9]): 0.0029
- binding affinity ratio (IC50 of standard peptide / IC50 of test peptide) (HLA-A*1101 (human) [8]; [9]): 0.002
- binding affinity ratio (IC50 of standard peptide / IC50 of test peptide) (HLA-A*0301 (human); [9]): -0.0002

B15: HBV POL 520 8-mer peptide SAICSVVR (SEQ ID NO: 652) (peptide)
peptide: SAICSVVR
modifications: not checked
- binding affinity ratio (IC50 of standard peptide / IC50 of test peptide) (HLA-A*3301 (human) [6]; [9]): 0.0081
- binding affinity ratio (IC50 of standard peptide / IC50 of test peptide) (HLA-A*6801 (human)): 0.069
- binding affinity ratio (IC50 of standard peptide / IC50 of test peptide) (HLA-A*3101 (human) [7]; [9]): 0.028
- binding affinity ratio (IC50 of standard peptide / IC50 of test peptide) (HLA-A*1101 (human) [8]; [9]): 0.0071

B16: HBV POL 771 11-mer peptide … (SEQ ID NO: 654) (peptide)
peptide: SALNPADDPSR
modifications: not checked
- binding affinity ratio (IC50 of standard peptide / IC50 of test peptide) (HLA-A*3301 (human) [6]): -0.0023
- binding affinity ratio (IC50 of standard peptide / IC50 of test peptide) (HLA-A*3101 (human) [7]): -0.0012
- binding affinity ratio (IC50 of standard peptide / IC50 of test peptide) (HLA-A*1101 (human) [8]): -0.0003
- binding affinity ratio (IC50 of standard peptide / IC50 of test peptide) (HLA-A*0301 (human)): -0.0004

B17: HBV POL 716 11-mer peptide … (SEQ ID NO: 661) (peptide)
peptide: TAELLAACFAR
modifications: not checked
- binding affinity ratio (IC50 of standard peptide / IC50 of test peptide) (HLA-A*3301 (human) [6]; [9]): 0.16
- binding affinity ratio (IC50 of standard peptide / IC50 of test peptide) (HLA-A*6801 (human)): 0.059
- binding affinity ratio (IC50 of standard peptide / IC50 of test peptide) (HLA-A*3101 (human) [7]; [9]): 0.0066
- binding affinity ratio (IC50 of standard peptide / IC50 of test peptide) (HLA-A*1101 (human) [8]; [9]): 0.0023
- binding affinity ratio (IC50 of standard peptide / IC50 of test peptide) (HLA-A*0301 (human); [9]): 0.0006

B18: HBV NUC 171 9-mer peptide … (SEQ ID NO: 662) (peptide)
peptide: TLPETTVVR
modifications: not checked
- binding affinity ratio (IC50 of standard peptide / IC50 of test peptide) (HLA-A*6801 (human)): 0.018
- binding affinity ratio (IC50 of standard peptide / IC50 of test peptide) (HLA-A*3101 (human) [7]; [9]): 0.0009

B19: HBV POL 150 11-mer peptide … (SEQ ID NO: 666) (peptide)
peptide: TLWKAGILYKR
modifications: not checked
- binding affinity ratio (IC50 of standard peptide / IC50 of test peptide) (HLA-A*3301 (human) [6]; [9]): 0.11
- binding affinity ratio (IC50 of standard peptide / IC50 of test peptide) (HLA-A*6801 (human)): 0.064
- binding affinity ratio (IC50 of standard peptide / IC50 of test peptide) (HLA-A*3101 (human) [7]; [9]): 0.1
- binding affinity ratio (IC50 of standard peptide / IC50 of test peptide) (HLA-A*1101 (human) [8]; [9]): 0.0095
- binding affinity ratio (IC50 of standard peptide / IC50 of test peptide) (HLA-A*0301 (human); [9]): 0.0082

B20: HBV POL 519 9-mer peptide … (SEQ ID NO: 667) (peptide)
peptide: TSAICSVVR
modifications: not checked
- binding affinity ratio (IC50 of standard peptide / IC50 of test peptide) (HLA-A*3301 (human) [6]; [9]): 0.02
- binding affinity ratio (IC50 of standard peptide / IC50 of test peptide) (HLA-A*6801 (human)): 0.082
- binding affinity ratio (IC50 of standard peptide / IC50 of test peptide) (HLA-A*3101 (human) [7]; [9]): 0.06
- binding affinity ratio (IC50 of standard peptide / IC50 of test peptide) (HLA-A*0301 (human); [9]): 0.0005
